Results taken from the Immune Epitope Database (IEDB).
pIC50: −log10 of the molar value.

Each sequence was assayed against HLA-A*01:01 (assay: IEDB peptide-MHC binding, purified MHC/competitive/radioactivity; ≥ and ≤ were set here for values at or beyond the usual limits of such assays). Conditions: source organism: unidentified.

pIC50 | Sequence
5.77 | PHSPALQPI
6.70 | GCLDTAQRNLY
5.00 | EKPHSEAGTAF
5.29 | GLELSGCIVY
5.00 | DKDGCMVEQY
7.49 | ADTDSPLRY
7.52 | ETESQQIRY
4.58 | LVIDNGSGMCKG

These sequences were tested against HLA-A*03:01 in the same assay as above. Conditions: source organism: unidentified.

pIC50 | Sequence
6.43 | RAVPGPPAR
5.57 | QTALVEIIK
5.59 | RTGVPPTIR
4.88 | GATCELPLQK
5.66 | PSVGPVLGR
5.06 | SLFSTSSKL
8.32 | ALSPVLIPR
5.74 | RVFPSNVICKG
4.73 | QFLEENTNILK
6.46 | RLADKSVLVCKG
4.59 | RIKFSDDRVCKG
9.11 | KISFPIIAK
7.51 | STLTDSLVCGK
6.69 | GVVCPVSDILYK
4.91 | AVYEGHVSCVKG
5.88 | NTCQDAAIVGYK
7.25 | RAAPPPPPR
6.62 | RSLTGILGK
5.07 | GFQNALLVR
6.18 | GSTCIYGGAPK
6.09 | GITCPQVLIQK
6.92 | SVRELNFTK
5.00 | LNDRGGSVIK
5.00 | QDKVKTLTGK
6.02 | LDAGLKKQFYK
6.76 | RAAAPPLPR
7.85 | IISIVTGLK

Each sequence was assayed against HLA-B*07:02 in the same assay as above. Conditions: source organism: unidentified.

pIC50 | Sequence
6.26 | LPRGGSVLVTCG
6.58 | GVWEEVGCAKG
8.44 | RPRWGAAAS
5.07 | PLRDARVSDL
7.48 | LGPRAAAAGAL
5.00 | PSTLNVGTL
4.95 | PKASSGSFSL
6.15 | PGRGARRLLALV
6.95 | LPPPARPPI
9.02 | NPRGARVIAL
5.00 | WSVMDQDSL
5.34 | VPAQSRPCVG
7.01 | FPRVSTPLA
4.94 | PGREAVSKL
6.44 | SPLAASKECAV
5.04 | PVEKNTVEL
8.37 | APRRPTQGTVTF
5.49 | PVRPAAAAATAL

These sequences were tested against HLA-B*27:05 in the same assay as above. Conditions: source organism: unidentified.

pIC50 | Sequence
7.62 | RRVYLEGRCVG
7.80 | ERAGPLSGKKF
6.62 | TRLVLDPVR
6.33 | PRPRGGSDL
5.82 | TRSTGLLGVK
7.08 | AHKEIHQQL
6.01 | VRSPGATASSL
8.80 | RRVSQGLLGK
5.00 | LKRDKLFEK
5.00 | GRNKLLQSW
6.97 | RRNDKQLCIG
6.08 | RGLASPPPVR
5.24 | GKLCQHIIKR
6.18 | GRVCSNRHGLIR
8.28 | ARCGGALLAL
6.47 | PRGSGGIGL
4.56 | PKLLGPLSL
7.80 | RRYNGGVGRCQ
7.49 | GRFEVGKKICLG
5.50 | ARVKEVEEMCKG
